Assay results published in patent US20250332275A1, “Branched Polypeptide Carrier for Efficient Nucleic Acid Delivery and Its Variants” (SUZHOU HEALIRNA BIOTECHNOLOGY CO., LTD., priority 2022, published 2025).
Ends that are not written are not given here.

Tested on: mRNA
Assay: Agarose gel electrophoresis of branched polypeptide mixed with mRNA
Assay type: physicochemical
Conditions: 1.5% agarose, 190 V, 20 minutes
Protocol: A 1.5% agarose gel was prepared by dissolving agarose in a TBE buffer using a microwave. After adding the sub-green dye, the solution was poured into the gel plate, and a comb was inserted. Polypeptide Sequences 9-12 samples were each mixed with mRNA and then mixed with the sample loading buffer in a 1:1 ratio and set aside after thorough mixing. The gel was loaded with Marker and the samples, then subjected to electrophoresis at 190 V for 20 minutes, and images were captured using a gel imaging system.

[1] = polypeptide with mRNA at a 1:1 mass ratio
[2] = polypeptide with mRNA at a 1:2 mass ratio

Row | Substance | retention of complex in sample well (mRNA encapsulation, FIG. 7) [1] | retention of complex in sample well (mRNA encapsulation, FIG. 7) [2]
1 | K(LAALAALAALAALAAC)KK(KDKDKDKDKDKD)KK(KDKDKDKDKDKD)KK(LAALAALAALAALAAC) (chain 1 KKKKKKK; chain 2 CAALAALAALAALAAL; chain 3 DKDKDKDKDKDK; also: branched: C-termini of two chain 2 copies amide-linked to side chains of Lys1, Lys7 of chain 1, C-termini of two chain 3 copies amide-linked to side chains of Lys3, Lys5 of chain 1) [Polypeptide Sequence 11] | remained within the sample wells | remained within the sample wells
2 | K(LAALAALAALAALAALAALAAC)KKKK(LAALAALAALAALAALAALAAC) (chain 1 KKKKK; chain 2 CAALAALAALAALAALAALAAL; also: branched: C-termini of two chain 2 copies amide-linked to side chains of Lys1, Lys5 of chain 1) [Polypeptide Sequence 9] | remained within the sample wells | remained within the sample wells
3 | K(LAALAALAALAALAA)KK(KSKKSKKSKC)KK(LAALAALAALAALAA)KK(KSKKSKKSKC)KK(LAALAALAALAALAA) (chain 1 KKKKKKKKK; chain 2 AALAALAALAALAAL; chain 3 CKSKKSKKSK; also: branched: C-termini of three chain 2 copies amide-linked to side chains of Lys1, Lys5, Lys9 of chain 1, C-termini of two chain 3 copies amide-linked to side chains of Lys3, Lys7 of chain 1) [Polypeptide Sequence 12] | remained within the sample wells | remained within the sample wells
4 | K(LAALAALAALAALAALAALAAC)KK(KSKKSKKSKKSKKSK)KK(LAALAALAALAALAALAALAAC) (chain 1 KKKKK; chain 2 CAALAALAALAALAALAALAAL; also: branched: C-termini of two chain 2 copies amide-linked to side chains of Lys1, Lys5 of chain 1, C-terminus of chain 3 amide-linked to side chain of Lys3 of chain 1) [Polypeptide Sequence 10] | remained within the sample wells | remained within the sample wells
